Test results from patent US20120207760A1.

Columns and labels:
Details in all cases: remark: other sources report otherwise
[1] = target: recombinant homotrimeric HA, A/Netherlands/219/03 H7N7 (Influenza A virus A/Netherlands/219/03 (H7N7)); assay: trimeric HA microarray, transfection set 2
[2] = target: T1, recombinant homotrimeric HA, A/Solomon Islands/3/06 H1N1 (Influenza A virus A/Solomon Islands/3/06 (H1N1)); assay: trimeric HA microarray, transfection set 2
[3] = target: T2, recombinant homotrimeric HA, A/Wisconsin/67/05 H3N2 (Influenza A virus A/Wisconsin/67/05 (H3N2)); assay: trimeric HA microarray, transfection set 2
[4] = target: recombinant homotrimeric HA, A/Egypt/3300-NAMRU3/08 H5N1 (Influenza A virus A/Egypt/3300-NAMRU3/08 (H5N1)); assay: trimeric HA microarray, transfection set 2
[5] = target: recombinant homotrimeric HA, A/Anhui/1/05 H5N1 (Influenza A virus A/Anhui/1/05 (H5N1)); assay: trimeric HA microarray, transfection set 2
[6] = target: recombinant homotrimeric HA, A/swine/Ontario/01911-2/99 H4N6 (Influenza A virus A/swine/Ontario/01911-2/99 (H4N6)); assay: trimeric HA microarray, transfection set 2
[7] = target: recombinant homotrimeric HA, A/Hong Kong/2108/03 H9N2 (Influenza A virus A/Hong Kong/2108/03 (H9N2)); assay: trimeric HA microarray, transfection set 2
[8] = target: T3, recombinant homotrimeric HA, A/California/4/09 H1N1 (Influenza A virus A/California/4/09 (H1N1)); assay: trimeric HA microarray, transfection set 2
[9] = target: T4, recombinant homotrimeric HA, A/Vietnam/1203/04 H5N1 (Influenza A virus A/Vietnam/1203/04 (H5N1)); assay: trimeric HA microarray, transfection set 2
[10] = target: recombinant homotrimeric HA, A/Hong Kong/1073/99 H9N2 (Influenza A virus A/Hong Kong/1073/99 (H9N2)); assay: trimeric HA microarray, transfection set 2
[11] = target: T5, recombinant homotrimeric HA, A/South Carolina/1/18 H1N1 (Influenza A virus A/South Carolina/1/18 (H1N1)); assay: trimeric HA microarray, transfection set 2
[12] = target: recombinant homotrimeric HA, A/common magpie/Hong Kong/5052/07 H5N1 (Influenza A virus A/common magpie/Hong Kong/5052/07 (H5N1)); assay: trimeric HA microarray, transfection set 2
[13] = target: T6, recombinant homotrimeric HA, A/Indonesia/5/05 H5N1 (Influenza A virus A/Indonesia/5/05 (H5N1)); assay: trimeric HA microarray, transfection set 2
[14] = target: recombinant homotrimeric HA, A/chicken/Vietnam/NCVD-016/08 H5N1 (Influenza A virus A/chicken/Vietnam/NCVD-016/08 (H5N1)); assay: trimeric HA microarray, transfection set 2
[15] = target: recombinant homotrimeric HA, A/duck/Yangzhou/02/05 H8N4 (Influenza A virus A/duck/Yangzhou/02/2005 (H8N4)); assay: trimeric HA microarray, transfection set 2
[16] = target: recombinant homotrimeric HA, A/northern shoveler/California/HKWF115/07 (Influenza A virus A/northern shoveler/California/HKWF115/2007 (H6N1)); assay: trimeric HA microarray, transfection set 2
[17] = target: T7, recombinant homotrimeric HA, A/Japan/305/57 H2N2 (Influenza A virus A/Japan/305/57 (H2N2)); assay: trimeric HA microarray, transfection set 2
[18] = target: T1, recombinant homotrimeric HA, A/Solomon …; assay: trimeric HA microarray, transfection set 4
[19] = target: T2, recombinant homotrimeric HA, …; assay: trimeric HA microarray, transfection set 4
[20] = target: T3, recombinant homotrimeric HA, …; assay: trimeric HA microarray, transfection set 4
[21] = target: T4, recombinant homotrimeric HA, …; assay: trimeric HA microarray, transfection set 4
[22] = target: T5, recombinant homotrimeric HA, A/South …; assay: trimeric HA microarray, transfection set 4
[23] = target: T6, recombinant homotrimeric HA, …; assay: trimeric HA microarray, transfection set 4
[24] = target: T7, recombinant homotrimeric HA, …; assay: trimeric HA microarray, transfection set 4
[25] = target: recombinant soluble homotrimeric HA of A/chicken/Vietnam/NCVD-016/08 (H5N1) (Influenza A virus A/chicken/Vietnam/NCVD-016/08 (H5N1)); assay: microarray, BCC supernatant IgG, trimeric HA
[26] = target: recombinant soluble homotrimeric HA of A/northern shoveler/California/HKWF115/07 (Influenza A virus A/northern shoveler/California/HKWF115/2007); assay: microarray, BCC supernatant IgG, trimeric HA
[27] = target: T1, recombinant homotrimeric HA, A/Solomon …; assay: trimeric HA microarray, transfection set 5
[28] = target: T3, recombinant homotrimeric HA, …; assay: trimeric HA microarray, transfection set 5
[29] = target: T5, recombinant homotrimeric HA, A/South …; assay: trimeric HA microarray, transfection set 5
[30] = target: T7, recombinant homotrimeric HA, …; assay: trimeric HA microarray, transfection set 5

Row | Binder | Trimeric HA Binding RLU [1] [RLU] | Trimeric HA Binding RLU [2] [RLU] | Trimeric HA Binding RLU [3] [RLU] | Trimeric HA Binding RLU [4] [RLU] | Trimeric HA Binding RLU [5] [RLU] | Trimeric HA Binding RLU [6] [RLU] | Trimeric HA Binding RLU [7] [RLU] | Trimeric HA Binding RLU [8] [RLU] | Trimeric HA Binding RLU [9] [RLU] | Trimeric HA Binding RLU [10] [RLU] | Trimeric HA Binding RLU [11] [RLU] | Trimeric HA Binding RLU [12] [RLU] | Trimeric HA Binding RLU [13] [RLU] | Trimeric HA Binding RLU [14] [RLU] | Trimeric HA Binding RLU [15] [RLU] | Trimeric HA Binding RLU [16] [RLU] | Trimeric HA Binding RLU [17] [RLU] | further results
1 | TCN-527 (5086_C06) (antibody, V domains shown) VH: QVQLQESGPGLVKPSETLSLNCAVSGGSISNYYWSWIRQPPGKGLEWIGYISYNGRPKYNPSLTSRVTISVDTSKDQFSLELRSVTAADTALYYCARETRFGELLSPYDAFEIWGQGTMVTVSS VL: DIQMTQSPSSLSASVGDRVTMTCRASQNIRSYLNWYQQRPGTAPKLLIYAASTLHSGVPSRFSGGGSGTDFTLTINNLQPEDFASYYCQQSYDNPQTFGQGTKVEIK | 49100 | 19700 | 35800 | 23600 | 15200 | 30100 | 25500 | 21500 | 20600 | 557 | 48100 | 43800 | 23400 | 20100 | 17900 | 19300 | 20800 | –
2 | TCN-528 (5087_P17) (antibody, V domains shown) VH: QVQLVQSGSEVKKPGASVKVSCKASGYTFTNYDINWIRQAPGQGLEWMGWINPNSGTTGSAQRFQGRVTITVDTSITTVYMELSSLRSDDTAIYYCARGRELLRLQHFLTDSQSERRDCFDPWGQGTLVTVSS VL: DIQMTQSPSSLSASVGDRVTITCRANQDIGIYLNWYQQNPGKVPKLLLHGASSLQGGVPSRFSASGSGTDFTLTIHSLQPEDLATYYCQQSRRLPYTFGQGTRVELK | 47200 | 26900 | 46000 | 36800 | 21200 | 49200 | 33600 | 44600 | 23300 | 322 | 25200 | 45300 | 39700 | 22600 | 19800 | 28400 | 23100 | –
3 | TCN-563 (5237_B21) (antibody, V domains shown) VH: QVQLAQSGAEVKRPGSSVKVSCTASGGIFRKNAISWVRQAPGQGLEWMGGIIAVFNTANYAQKFQGRVKITADESGNTAYMELSSLRSDDTAVYYCASHPKYFYGSGSYPDFWGQGTLVTVSS VL: QSALTQPRSVSGSPGQSVTISCTGSSSDVGASNSVSWYQQHPGKAPKLVIYDVTERPSGVPHRFSGSKSGNTASLTVSGLQPEDEADYFCCAYGGKYLVVFGGGTKVTVL | 5420 | 26500 | 23700 | 23900 | 1570 | – | 364 | 21200 | 31500 | 49200 | 17800 | 52800 | 47300 | 36300 | 6280 | 21900 | 11200 | –
4 | TCN-534 (5249_B02) (antibody, V domains shown) VH: QVQLVQSGAEVKKPGSSVKVSCRESGGTFNGYTITWVRQAPGQGLEWMGGIIPMMGTVNYAQKLQGRVTITTDYFTKTAYMDLNNLRSEDTAMYYCVKIRYTGQQLLWGQGTLVTVSS VL: DIQMTQSPSTLSASIGDRVTITCRASQSIASWLAWYQQKPGKAPKLLIYEAVNLESGVPSRFSGSGSGTDFTLTISSLQPDDFATYFCQHYGTISQTFGGGTKVEIK | – | – | – | – | – | – | – | – | – | – | – | – | – | – | – | – | – | Trimeric HA Binding RLU [18]: 60 RLU; Trimeric HA Binding RLU [19]: 897 RLU; Trimeric HA Binding RLU [20]: 27000 RLU; Trimeric HA Binding RLU [21]: 23700 RLU; Trimeric HA Binding RLU [22]: 11800 RLU; Trimeric HA Binding RLU [23]: 948 RLU; Trimeric HA Binding RLU [24]: 14700 RLU
5 | TCN-548 (5092_P01) (antibody, V domains shown) VH: QVQLQESGPGLVKPSETLSLTCTVSSGPMSDYYWSWIRQPPGKGLEWIGHVSVSHGGRTKSNPSVMSRVTISVETSKNQFSLKLTSVTAADTAVYYCARLNYYDRSGYHSPDGPSNNWFDPWGQGTLVTVSS VL: not shown | – | – | – | – | – | – | – | – | – | – | – | – | – | – | – | – | – | Trimeric HA Binding: RLU [25]: 254 RLU; Trimeric HA Binding: RLU [26]: 314 RLU; Trimeric HA Binding RLU [27]: 750 RLU; Trimeric HA Binding RLU [28]: 818 RLU; Trimeric HA Binding RLU [29]: 1150 RLU; Trimeric HA Binding RLU [30]: 1020 RLU
6 | TCN-526 (5084_C17) (antibody, V domains shown) VH: EVLMVESGGGLVQPGGSVRLSCVASGFSFSSHWMTWVRQAPGKGLEWVANIEDDGGDKYYVDSVKGRFIISRDNAKNSVYLQMNSLRAEDTAVYFCARGSGSSDRSDYDPHYYYYLDVWGKGATVTVSS VL: DIQLTQSPSSLSASVGDRVTITCRASQSISRYLNWYQQKPGKAPKLLLFAASTLLDGVPSRFSGSGSGTDFTLTISSLQPEDFATYYCQRNHSPSWTFGQGTRVEIK | 5660 | 1470 | 27800 | – | – | 3490 | – | – | – | 490 | 2310 | – | – | – | – | – | 3590 | –
